Results from publication PMC4958245.

Molecular target: recombinant Fc−ICAM-1 (human) (UniProt P05362)
Assay: BLI; Octet QKe; DBLβ domains on an Fc−ICAM-1 probe; apparent Kd from double-reference-subtracted data of three concentrations, global 1:1 Langmuir fit

Chain of UniProt P05362 (P05362 28-480): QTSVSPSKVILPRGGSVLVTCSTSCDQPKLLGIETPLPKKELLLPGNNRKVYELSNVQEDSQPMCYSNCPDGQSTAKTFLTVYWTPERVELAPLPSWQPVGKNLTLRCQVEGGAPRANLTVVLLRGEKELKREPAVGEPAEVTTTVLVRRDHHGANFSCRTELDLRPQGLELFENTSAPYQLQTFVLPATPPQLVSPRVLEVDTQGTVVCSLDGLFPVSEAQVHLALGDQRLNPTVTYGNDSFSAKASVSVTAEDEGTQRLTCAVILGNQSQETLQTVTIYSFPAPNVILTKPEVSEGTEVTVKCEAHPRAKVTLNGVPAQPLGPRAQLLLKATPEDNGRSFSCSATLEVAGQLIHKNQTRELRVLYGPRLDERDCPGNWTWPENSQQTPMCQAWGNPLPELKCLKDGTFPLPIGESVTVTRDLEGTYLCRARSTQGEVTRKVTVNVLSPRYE

IT4var07DBLβ1 (N726-C1211) (domain or fragment)
Kd: 8.7 nM
